Laboratory results: the supplement of paper PMC10567573

B1: RHOBTB3 (parent)
chain: STTEGIQLAKELGATYLELHSLDD
B2: FAM189A2 (parent)
chain: CALNALTTTVCLVAAALRYLQIFA

Variants of: B1
Assay: protein stability index of a GFP-peptide fusion (GPS, HEK-293T) (PSI 1-6); higher = more stable
Conditions: c terminus: a fixed tail appended
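Further: lentivirally expressed fusions sorted by FACS into six bins by GFP to DsRed ratio, PSI derived from sequencing read proportions per bin multiplied by bin number.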

Variant	protein stability index
STTEGIQLAKELGATYLELHSLDW [D24W]	2.09
STTEGIQLAKELGATYLELHSLDY [D24Y]	2.7

Variants of: B2
Assay: as above
Conditions: c terminus: a fixed tail appended

Variant	protein stability index
AALNALTTTVCLVAAALRYLQIFA [C1A]	2.05
DALNALTTTVCLVAAALRYLQIFA [C1D]	2.46
FALNALTTTVCLVAAALRYLQIFA [C1F]	4.75
GALNALTTTVCLVAAALRYLQIFA [C1G]	2.6
HALNALTTTVCLVAAALRYLQIFA [C1H]	2.7
IALNALTTTVCLVAAALRYLQIFA [C1I]	2.86
KALNALTTTVCLVAAALRYLQIFA [C1K]	3.08
LALNALTTTVCLVAAALRYLQIFA [C1L]	1.59
NALNALTTTVCLVAAALRYLQIFA [C1N]	3.61
PALNALTTTVCLVAAALRYLQIFA [C1P]	1.11
QALNALTTTVCLVAAALRYLQIFA [C1Q]	3.13
RALNALTTTVCLVAAALRYLQIFA [C1R]	3.14
SALNALTTTVCLVAAALRYLQIFA [C1S]	3.48
TALNALTTTVCLVAAALRYLQIFA [C1T]	3.21
VALNALTTTVCLVAAALRYLQIFA [C1V]	1.85
YALNALTTTVCLVAAALRYLQIFA [C1Y]	2.99
CDLNALTTTVCLVAAALRYLQIFA [A2D]	4.37
CFLNALTTTVCLVAAALRYLQIFA [A2F]	4.07
CGLNALTTTVCLVAAALRYLQIFA [A2G]	3.74
CILNALTTTVCLVAAALRYLQIFA [A2I]	2.77
CKLNALTTTVCLVAAALRYLQIFA [A2K]	3.83
CMLNALTTTVCLVAAALRYLQIFA [A2M]	2.77
CNLNALTTTVCLVAAALRYLQIFA [A2N]	3.43
CPLNALTTTVCLVAAALRYLQIFA [A2P]	3.11

Variant	protein stability index
CQLNALTTTVCLVAAALRYLQIFA [A2Q]	3.74
CRLNALTTTVCLVAAALRYLQIFA [A2R]	3.42
CTLNALTTTVCLVAAALRYLQIFA [A2T]	4.22
CWLNALTTTVCLVAAALRYLQIFA [A2W]	2.26
CYLNALTTTVCLVAAALRYLQIFA [A2Y]	3.17
CAANALTTTVCLVAAALRYLQIFA [L3A]	3.13
CACNALTTTVCLVAAALRYLQIFA [L3C]	4.07
CADNALTTTVCLVAAALRYLQIFA [L3D]	3.27
CAENALTTTVCLVAAALRYLQIFA [L3E]	3.25
CAFNALTTTVCLVAAALRYLQIFA [L3F]	3.52
CAHNALTTTVCLVAAALRYLQIFA [L3H]	2.11
CAINALTTTVCLVAAALRYLQIFA [L3I]	1.61
CAKNALTTTVCLVAAALRYLQIFA [L3K]	1.92
CANNALTTTVCLVAAALRYLQIFA [L3N]	2.3
CAPNALTTTVCLVAAALRYLQIFA [L3P]	3.65
CAQNALTTTVCLVAAALRYLQIFA [L3Q]	3
CARNALTTTVCLVAAALRYLQIFA [L3R]	2.9
CASNALTTTVCLVAAALRYLQIFA [L3S]	2
CATNALTTTVCLVAAALRYLQIFA [L3T]	2.98
CAVNALTTTVCLVAAALRYLQIFA [L3V]	2.62
CAWNALTTTVCLVAAALRYLQIFA [L3W]	1.62
CALAALTTTVCLVAAALRYLQIFA [N4A]	1.84
CALCALTTTVCLVAAALRYLQIFA [N4C]	2.79
CALDALTTTVCLVAAALRYLQIFA [N4D]	2.85

Variant	protein stability index
CALEALTTTVCLVAAALRYLQIFA [N4E]	2.1
CALFALTTTVCLVAAALRYLQIFA [N4F]	2.81
CALGALTTTVCLVAAALRYLQIFA [N4G]	2.34
CALHALTTTVCLVAAALRYLQIFA [N4H]	3.53
CALIALTTTVCLVAAALRYLQIFA [N4I]	2.87
CALKALTTTVCLVAAALRYLQIFA [N4K]	2.35
CALPALTTTVCLVAAALRYLQIFA [N4P]	2.66
CALRALTTTVCLVAAALRYLQIFA [N4R]	3.01
CALSALTTTVCLVAAALRYLQIFA [N4S]	3.62
CALTALTTTVCLVAAALRYLQIFA [N4T]	2.17
CALVALTTTVCLVAAALRYLQIFA [N4V]	3.46
CALWALTTTVCLVAAALRYLQIFA [N4W]	2.84
CALNCLTTTVCLVAAALRYLQIFA [A5C]	3.07
CALNELTTTVCLVAAALRYLQIFA [A5E]	3.02
CALNFLTTTVCLVAAALRYLQIFA [A5F]	2.29
CALNILTTTVCLVAAALRYLQIFA [A5I]	3.46
CALNKLTTTVCLVAAALRYLQIFA [A5K]	4.99
CALNLLTTTVCLVAAALRYLQIFA [A5L]	2.77
CALNMLTTTVCLVAAALRYLQIFA [A5M]	3.65
CALNNLTTTVCLVAAALRYLQIFA [A5N]	2.07
CALNPLTTTVCLVAAALRYLQIFA [A5P]	2.7
CALNQLTTTVCLVAAALRYLQIFA [A5Q]	3.79
CALNRLTTTVCLVAAALRYLQIFA [A5R]	2.98
CALNSLTTTVCLVAAALRYLQIFA [A5S]	3.5

Variant	protein stability index
CALNTLTTTVCLVAAALRYLQIFA [A5T]	3.6
CALNVLTTTVCLVAAALRYLQIFA [A5V]	1.92
CALNYLTTTVCLVAAALRYLQIFA [A5Y]	3.68
CALNAATTTVCLVAAALRYLQIFA [L6A]	2.83
CALNACTTTVCLVAAALRYLQIFA [L6C]	2.11
CALNADTTTVCLVAAALRYLQIFA [L6D]	3.49
CALNAFTTTVCLVAAALRYLQIFA [L6F]	1.13
CALNAGTTTVCLVAAALRYLQIFA [L6G]	4.13
CALNAITTTVCLVAAALRYLQIFA [L6I]	1.47
CALNAKTTTVCLVAAALRYLQIFA [L6K]	1.77
CALNAMTTTVCLVAAALRYLQIFA [L6M]	4.19
CALNANTTTVCLVAAALRYLQIFA [L6N]	3.48
CALNAPTTTVCLVAAALRYLQIFA [L6P]	3.83
CALNAQTTTVCLVAAALRYLQIFA [L6Q]	2.83
CALNARTTTVCLVAAALRYLQIFA [L6R]	2.87
CALNATTTTVCLVAAALRYLQIFA [L6T]	2.87
CALNAWTTTVCLVAAALRYLQIFA [L6W]	3.2
CALNAYTTTVCLVAAALRYLQIFA [L6Y]	3.27
CALNALATTVCLVAAALRYLQIFA [T7A]	3.07
CALNALCTTVCLVAAALRYLQIFA [T7C]	3.6
CALNALDTTVCLVAAALRYLQIFA [T7D]	2.18
CALNALFTTVCLVAAALRYLQIFA [T7F]	2.06
CALNALGTTVCLVAAALRYLQIFA [T7G]	2.78
CALNALITTVCLVAAALRYLQIFA [T7I]	3.6

Variant	protein stability index
CALNALKTTVCLVAAALRYLQIFA [T7K]	1.87
CALNALMTTVCLVAAALRYLQIFA [T7M]	4.03
CALNALNTTVCLVAAALRYLQIFA [T7N]	3.42
CALNALPTTVCLVAAALRYLQIFA [T7P]	3.27
CALNALQTTVCLVAAALRYLQIFA [T7Q]	3.37
CALNALRTTVCLVAAALRYLQIFA [T7R]	2.34
CALNALSTTVCLVAAALRYLQIFA [T7S]	2.85
CALNALWTTVCLVAAALRYLQIFA [T7W]	2.89
CALNALYTTVCLVAAALRYLQIFA [T7Y]	3.46
CALNALTATVCLVAAALRYLQIFA [T8A]	3.34
CALNALTCTVCLVAAALRYLQIFA [T8C]	2.95
CALNALTETVCLVAAALRYLQIFA [T8E]	4.29
CALNALTFTVCLVAAALRYLQIFA [T8F]	3.49
CALNALTGTVCLVAAALRYLQIFA [T8G]	1.91
CALNALTHTVCLVAAALRYLQIFA [T8H]	2.94
CALNALTITVCLVAAALRYLQIFA [T8I]	3.39
CALNALTKTVCLVAAALRYLQIFA [T8K]	1.93
CALNALTLTVCLVAAALRYLQIFA [T8L]	1.99
CALNALTMTVCLVAAALRYLQIFA [T8M]	2.93
CALNALTNTVCLVAAALRYLQIFA [T8N]	3.77
CALNALTPTVCLVAAALRYLQIFA [T8P]	2.92
CALNALTRTVCLVAAALRYLQIFA [T8R]	2.69
CALNALTSTVCLVAAALRYLQIFA [T8S]	2.63
CALNALTWTVCLVAAALRYLQIFA [T8W]	3.44

Variant	protein stability index
CALNALTTAVCLVAAALRYLQIFA [T9A]	3.62
CALNALTTCVCLVAAALRYLQIFA [T9C]	2.34
CALNALTTDVCLVAAALRYLQIFA [T9D]	2.65
CALNALTTEVCLVAAALRYLQIFA [T9E]	2.63
CALNALTTFVCLVAAALRYLQIFA [T9F]	2.07
CALNALTTGVCLVAAALRYLQIFA [T9G]	4.16
CALNALTTHVCLVAAALRYLQIFA [T9H]	2.19
CALNALTTIVCLVAAALRYLQIFA [T9I]	2.68
CALNALTTLVCLVAAALRYLQIFA [T9L]	2.69
CALNALTTNVCLVAAALRYLQIFA [T9N]	2.79
CALNALTTPVCLVAAALRYLQIFA [T9P]	3.2
CALNALTTQVCLVAAALRYLQIFA [T9Q]	3.59
CALNALTTSVCLVAAALRYLQIFA [T9S]	3.11
CALNALTTVVCLVAAALRYLQIFA [T9V]	3.39
CALNALTTYVCLVAAALRYLQIFA [T9Y]	2.69
CALNALTTTACLVAAALRYLQIFA [V10A]	2.46
CALNALTTTCCLVAAALRYLQIFA [V10C]	1.42
CALNALTTTDCLVAAALRYLQIFA [V10D]	4.46
CALNALTTTECLVAAALRYLQIFA [V10E]	3.04
CALNALTTTFCLVAAALRYLQIFA [V10F]	1.53
CALNALTTTGCLVAAALRYLQIFA [V10G]	4.6
CALNALTTTHCLVAAALRYLQIFA [V10H]	3.15
CALNALTTTICLVAAALRYLQIFA [V10I]	2.3
CALNALTTTKCLVAAALRYLQIFA [V10K]	2.08

Variant	protein stability index
CALNALTTTLCLVAAALRYLQIFA [V10L]	3.21
CALNALTTTMCLVAAALRYLQIFA [V10M]	1.98
CALNALTTTNCLVAAALRYLQIFA [V10N]	2.53
CALNALTTTPCLVAAALRYLQIFA [V10P]	2.12
CALNALTTTQCLVAAALRYLQIFA [V10Q]	4.03
CALNALTTTRCLVAAALRYLQIFA [V10R]	1.62
CALNALTTTSCLVAAALRYLQIFA [V10S]	4.12
CALNALTTTTCLVAAALRYLQIFA [V10T]	2.65
CALNALTTTWCLVAAALRYLQIFA [V10W]	2.05
CALNALTTTVALVAAALRYLQIFA [C11A]	3.95
CALNALTTTVDLVAAALRYLQIFA [C11D]	2.75
CALNALTTTVFLVAAALRYLQIFA [C11F]	3.1
CALNALTTTVHLVAAALRYLQIFA [C11H]	1.63
CALNALTTTVILVAAALRYLQIFA [C11I]	4.44
CALNALTTTVKLVAAALRYLQIFA [C11K]	3.55
CALNALTTTVLLVAAALRYLQIFA [C11L]	3.18
CALNALTTTVMLVAAALRYLQIFA [C11M]	2.97
CALNALTTTVNLVAAALRYLQIFA [C11N]	1.91
CALNALTTTVPLVAAALRYLQIFA [C11P]	2.3
CALNALTTTVQLVAAALRYLQIFA [C11Q]	1.41
CALNALTTTVRLVAAALRYLQIFA [C11R]	3.69
CALNALTTTVSLVAAALRYLQIFA [C11S]	2.18
CALNALTTTVTLVAAALRYLQIFA [C11T]	2.74
CALNALTTTVYLVAAALRYLQIFA [C11Y]	3.58

Variant	protein stability index
CALNALTTTVCAVAAALRYLQIFA [L12A]	3.5
CALNALTTTVCCVAAALRYLQIFA [L12C]	2.39
CALNALTTTVCEVAAALRYLQIFA [L12E]	1.51
CALNALTTTVCFVAAALRYLQIFA [L12F]	2.56
CALNALTTTVCGVAAALRYLQIFA [L12G]	3.05
CALNALTTTVCHVAAALRYLQIFA [L12H]	3.28
CALNALTTTVCIVAAALRYLQIFA [L12I]	3.35
CALNALTTTVCKVAAALRYLQIFA [L12K]	2.3
CALNALTTTVCMVAAALRYLQIFA [L12M]	3.44
CALNALTTTVCNVAAALRYLQIFA [L12N]	4.01
CALNALTTTVCPVAAALRYLQIFA [L12P]	3.76
CALNALTTTVCRVAAALRYLQIFA [L12R]	2.39
CALNALTTTVCTVAAALRYLQIFA [L12T]	2.96
CALNALTTTVCWVAAALRYLQIFA [L12W]	3.65
CALNALTTTVCYVAAALRYLQIFA [L12Y]	3.88
CALNALTTTVCLAAAALRYLQIFA [V13A]	2.99
CALNALTTTVCLDAAALRYLQIFA [V13D]	2.59
CALNALTTTVCLEAAALRYLQIFA [V13E]	3.61
